Positions count from the first letter of the chain named.

These results are taken from patent publication US20260144882A1 (BIO THERA SOLUTIONS, published 2026).

This assay deals with T1, human Nectin-4 extracellular antigen hNectin-4-His (human, UniProt Q96NY8 32-349).
T1 construct: C-terminal 8xHis tag included
T1 sequence: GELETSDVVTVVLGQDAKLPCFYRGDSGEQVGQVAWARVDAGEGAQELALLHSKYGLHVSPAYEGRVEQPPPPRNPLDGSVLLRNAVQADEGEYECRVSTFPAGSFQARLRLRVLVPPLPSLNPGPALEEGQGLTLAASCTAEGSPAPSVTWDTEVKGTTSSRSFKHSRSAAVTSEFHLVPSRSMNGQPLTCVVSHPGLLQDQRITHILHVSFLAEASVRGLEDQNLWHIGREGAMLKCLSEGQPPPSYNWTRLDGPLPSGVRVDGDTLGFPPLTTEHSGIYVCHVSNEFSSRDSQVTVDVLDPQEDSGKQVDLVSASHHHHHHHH
The assay can be described thus: ELISA, phage scFv supernatant 1:50. For orientation: In an ELISA, binding on a coated surface is turned into a signal by an enzyme label.

B1: 10F4-1F9 scFv (scFv, V domains shown)
VH: EVQLVESGGGLVQPGGSLRLSCAASGFSFGGFDMSWVRQAPGKGLEWVSGIKTYGGYRSYADSVKGRFTISRDNSKNTLYLQMNSLRAEDTAVYYCAREYSDVVDYVSVRTPLDYWGQGTLVTVSS
VL: DIQMTQSPSSLSASVGDRVTITCRASQGISSYLAWYQQKPGKAPKLLIYAASSLQSGVPSRFSGSGSGTDFTLTISSLQPEDFATYYCQQHYTTPPTFGQGTKVEIKR
notes: phage clone supernatant
The molecule B1 gave an OD value of 1.48 OD.

B2: 10F4-1B9 scFv (scFv, V domains shown)
VH: EVQLVESGGGLVQPGGSLRLSCAASGFNFDNYYMSWVRQAPGKGLEWVSSIYQTDASIFYADSVKGRFTISRDNSKNTLYLQMNSLRAEDTAVYYCAREYSDVVDYVSVRTPLDYWGQGTLVTVSS
VL: B1 VL
notes: phage clone supernatant
Molecule B2 had an OD value of 1.5 OD.

B3: 10F4-1E1 scFv (scFv, V domains shown)
VH: EVQLVESGGGLVQPGGSLRLSCAASGDIFGNYWMSWVRQAPGKGLEWVSSIDASSGNRFYADSVKGRFTISRDNSKNTLYLQMNSLRAEDTAVYYCAREYSDVVDYVSVRTPLDYWGQGTLVTVSS
VL: B1 VL
notes: phage clone supernatant
As to B3, the OD value is 1.63 OD.

B4: 10F4-1C7 scFv (scFv, V domains shown)
VH: B3 VH with I28S, G30D, S50A, A53T, S54H, G56D, R58S
VL: B1 VL
notes: phage clone supernatant
B4 had an OD value of 1.57 OD.

B5: 1G8-1C12 scFv (scFv, V domains shown)
VH: EVQLVESGGGLVQPGGSLRLSCAASGGSFYGFGMSWVRQAPGKGLEWVSGIYSHDADKRYADSVKGRFTISRDNSKNTLYLQMNSLRAEDTAVYYCARQTEDRSYGYDLDYWGQGTLVTVSS
VL: B1 VL
notes: phage clone supernatant
For the molecule B5, the OD value is 1.42 OD.

B6: 10F4-1F1 scFv (scFv, V domains shown)
VH: B2 VH with N28S, D30S, Y33W, S50A, Y52S, Q53P, T54G, A56G, S57T
VL: B1 VL
notes: phage clone supernatant
In turn, B6 gave an OD value of 1.63 OD.

B7: 10F4-2C2 scFv (scFv, V domains shown)
VH: B3 VH with D27F, I28N, G30S, S50V, S54H, G56A, R58I, F59R
VL: B1 VL
notes: phage clone supernatant
As for B7, the OD value stood at 1.58 OD.

B8: 10F4-2B11 scFv (scFv, V domains shown)
VH: B3 VH with D27G, I28S, G30T, S50V, A53S, S54T, S55G, G56S
VL: B1 VL
notes: phage clone supernatant
In turn, B8 returned an OD value of 1.55 OD.

B9: 10F4-2F11 scFv (scFv, V domains shown)
VH: B1 VH with F27Y, S28N, G30T, G31S, F32Y, Y54G, Y57S, R58A, S59R
VL: B1 VL
notes: phage clone supernatant
As to B9, the OD value was determined as 1.46 OD.

B10: 10F4-2C6 scFv (scFv, V domains shown)
VH: B1 VH with S28N, T53Q, G55K, R58T
VL: B1 VL
notes: phage clone supernatant
In turn, B10 showed an OD value of 1.52 OD.

B11: 10F4-1G7 scFv (scFv, V domains shown)
VH: EVQLVESGGGLVQPGGSLRLSCAASGYNFGDYDMSWVRQAPGKGLEWVSSIIGHGDTKFYADSVKGRFTISRDNSKNTLYLQMNSLRAEDTAVYYCAREYSDVVDYVSVRTPLDYWGQGTLVTVSS
VL: B1 VL
notes: phage clone supernatant
In turn, B11 returned an OD value of 1.54 OD.

B12: 10F4-1H1 scFv (scFv, V domains shown)
VH: B1 VH with F27Y, G31N, T53Q, G55K, R58T
VL: B1 VL
notes: phage clone supernatant
In turn, B12 had an OD value of 1.61 OD.

B13: 10F4-2E4 scFv (scFv, V domains shown)
VH: EVQLVESGGGLVQPGGSLRLSCAASGYTFDSYWMSWVRQAPGKGLEWVSAIDGTDSVAYYADSVKGRFTISRDNSKNTLYLQMNSLRAEDTAVYYCAREYSDVVDYVSVRTPLDYWGQGTLVTVSS
VL: B1 VL
notes: phage clone supernatant
B13 gave an OD value of 1.43 OD.

B14: 10F4-1G5 scFv (scFv, V domains shown)
VH: B13 VH with Y32S, A50S, G53A, T54Y, D55G, S56D, V57Y, A58N, Y59F
VL: B1 VL
notes: phage clone supernatant
Take B14: the OD value turned out to be 1.41 OD.

B15: 10F4-2E1 scFv (scFv, V domains shown)
VH: B1 VH with S28T, G30T, G31T, F32Y, T53Y, Y54S, G55K, G56Y, R58T, S59H
VL: B1 VL
notes: phage clone supernatant
Take B15: the OD value came to 1.6 OD.

B16: 10F4-2A1 scFv (scFv, V domains shown)
VH: B11 VH with N28T, G30D, S50G, I52K, G53A, G55S, T57N, F59R
VL: B1 VL
notes: phage clone supernatant
As for B16, the OD value stood at 1.76 OD.

B17: 10F4-2A5 scFv (scFv, V domains shown)
VH: B1 VH with F27Y, G30T, G31D, F32Y, G55K, G56S, Y57D, R58A, S59R
VL: B1 VL
notes: phage clone supernatant
In the case of B17, the OD value stood at 1.59 OD.

B18: 10F4-2E8 scFv (scFv, V domains shown)
VH: B11 VH with Y27F, D31N, G53P, T57Y, K58S
VL: B1 VL
notes: phage clone supernatant
B18 came in with an OD value of 1.38 OD.

B19: 10F4-3 scFv (scFv, V domains shown)
VH: B1 VH with G31D, D33A, G50V, K52D, T53G, Y54H, G55T, G56A, R58N
VL: B1 VL
notes: phage clone supernatant
Molecule B19 yielded an OD value of 1.32 OD.

B20: 10F4-5 scFv (scFv, V domains shown)
VH: B1 VH with S28I, G30D, F32Y, G50V, T53D, Y54H, R58K, S59F
VL: B1 VL
notes: phage clone supernatant
Turning to B20, the OD value was 1.31 OD.

B21: 10F4-2C4 scFv (scFv, V domains shown)
VH: B3 VH with D27Y, I28S, N31D, S50V, A53S, S54G, R58K, F59R
VL: B1 VL
notes: phage clone supernatant
As to B21, the OD value came to 1.53 OD.

B22: 10F4-1H7 scFv (scFv, V domains shown)
VH: B1 VH with F27Y, G30D, G31T, F32Y, T53Q, G55K, R58T
VL: B1 VL
notes: phage clone supernatant
As for B22, the OD value turned out to be 1.49 OD.

B23: 10F4-1H4 scFv (scFv, V domains shown)
VH: B13 VH with Y27F, T28N, D30T, S31N, D52S, D55G, S56G, V57Y, A58T
VL: B1 VL
notes: phage clone supernatant
B23: the OD value was 1.38 OD.

B24: 10F4-2G2 scFv (scFv, V domains shown)
VH: B11 VH with G30T, G53A, H54S, D56S, T57G, K58N, F59Y
VL: B1 VL
notes: phage clone supernatant
Take B24: the OD value came out at 1.49 OD.

B25: 10F4-1G8 scFv (scFv, V domains shown)
VH: B1 VH with S28N, G30S, G31D, G50V, T53P, Y54S, G56D, R58I, S59N
VL: B1 VL
notes: phage clone supernatant
Turning to B25, the OD value stood at 1.52 OD.

B26: 10F4-1H11 scFv (scFv, V domains shown)
VH: EVQLVESGGGLVQPGGSLRLSCAASGYTFTGFWMSWVRQAPGKGLEWVSSISPDSGTKHYADSVKGRFTISRDNSKNTLYLQMNSLRAEDTAVYYCAREYSDVVDYVSVRTPLDYWGQGTLVTVSS
VL: B1 VL
notes: phage clone supernatant
B26 registered an OD value of 1.56 OD.

B27: 10F4-2E6 scFv (scFv, V domains shown)
VH: B3 VH with D27F, I28S, N31D, S50A, A53Q, S54G, S55K, G56A, N57T, R58S
VL: B1 VL
notes: phage clone supernatant
Molecule B27 showed an OD value of 1.45 OD.

B28: 10F4-1H6 scFv (scFv, V domains shown)
VH: B1 VH with S28N, G30Y, G31D, F32Y, Y54H, G55S, Y57G, R58N, S59G
VL: B1 VL
notes: phage clone supernatant
On to B28, for which the OD value worked out at 1.48 OD.

B29: 10F4-2H5 scFv (scFv, V domains shown)
VH: B3 VH with D27Y, G30T, A53Q, S54G, R58I
VL: B1 VL
notes: phage clone supernatant
B29 had an OD value of 1.44 OD.

B30: 10F4-2C12 scFv (scFv, V domains shown)
VH: B11 VH with D33S, S50V, I52D, G53T, H54T, G55S, D56A, T57Y, K58T, F59R
VL: B1 VL
notes: phage clone supernatant
Molecule B30 displayed an OD value of 1.45 OD.
